This note sets out measurements from publication PMC9851909, “Structure of a volume-regulated heteromeric LRRC8A/C channel” (Nature Structural & Molecular Biology, 2022).

Where “and” joins values, the source holds several entries; their conditions need not be identical. Equal entries are not always repeated.

Series [1] has as its target murine LRRC8C, full length (murine) (UniProt Q8R502). Kind of series: affinity purification with mass spectrometry; differentially tagged murine LRRC8A (or LRRC8A^SAM) and LRRC8C co-expressed in HEK293S GnTI- or LRRC8-/- cells at A:C DNA ratios of 1:1 or 1:3; tandem affinity purification (Ni-NTA, then Streptactin) in digitonin, 25 mM Tris pH 8.5, 250 mM NaCl, 4 °C; LC-MS/MS absolute quantification with isotope-labelled peptides.

The target is the same in series [2]. In words: cryo-EM structure; tandem-purified LRRC8A/C (A:C DNA 1:1 and 1:3) in digitonin with tag-free Sb1 added at a 1.5 molar excess before vitrification; C1; high resolution only for the 1:1 sample.
Series [3] has as its target T1, endogenous LRRC8A of HEK293 cells (human (endogenous in HEK293T), UniProt Q8IWT6).
T1 construct: LRRC8A, endogenous in HEK293 cells; also called A subunit; SWELL1; source: endogenous, HEK293T and HEK293 LRRC8^B,D,E-/- cells, lysate in 2% GDN; isolated on SBP-tagged Sb1
Kind of series: affinity purification with mass spectrometry; pairs of the bait Sb1: endogenous LRRC8 channels from HEK293T (WT) or LRRC8^B,D,E-/- cells isolated on SBP-tagged Sb1 and Streptactin resin (Sb1 either expressed in the same cells or purified and bound to the resin before the lysate was loaded; which protocol for which sample is not told); 2% GDN lysis, 36 mM Tris pH 8.5, 150 mM NaCl; tryptic digest, LC-MS/MS.

Series [4] addresses T2, endogenous LRRC8C of HEK293 cells (human (endogenous in HEK293T), UniProt Q8TDW0 1-803).
T2 construct: LRRC8C, endogenous in HEK293 cells; also called C subunit; source: endogenous, HEK293T and HEK293 LRRC8^B,D,E-/- cells, lysate in 2% GDN
T2 sequence (looked up): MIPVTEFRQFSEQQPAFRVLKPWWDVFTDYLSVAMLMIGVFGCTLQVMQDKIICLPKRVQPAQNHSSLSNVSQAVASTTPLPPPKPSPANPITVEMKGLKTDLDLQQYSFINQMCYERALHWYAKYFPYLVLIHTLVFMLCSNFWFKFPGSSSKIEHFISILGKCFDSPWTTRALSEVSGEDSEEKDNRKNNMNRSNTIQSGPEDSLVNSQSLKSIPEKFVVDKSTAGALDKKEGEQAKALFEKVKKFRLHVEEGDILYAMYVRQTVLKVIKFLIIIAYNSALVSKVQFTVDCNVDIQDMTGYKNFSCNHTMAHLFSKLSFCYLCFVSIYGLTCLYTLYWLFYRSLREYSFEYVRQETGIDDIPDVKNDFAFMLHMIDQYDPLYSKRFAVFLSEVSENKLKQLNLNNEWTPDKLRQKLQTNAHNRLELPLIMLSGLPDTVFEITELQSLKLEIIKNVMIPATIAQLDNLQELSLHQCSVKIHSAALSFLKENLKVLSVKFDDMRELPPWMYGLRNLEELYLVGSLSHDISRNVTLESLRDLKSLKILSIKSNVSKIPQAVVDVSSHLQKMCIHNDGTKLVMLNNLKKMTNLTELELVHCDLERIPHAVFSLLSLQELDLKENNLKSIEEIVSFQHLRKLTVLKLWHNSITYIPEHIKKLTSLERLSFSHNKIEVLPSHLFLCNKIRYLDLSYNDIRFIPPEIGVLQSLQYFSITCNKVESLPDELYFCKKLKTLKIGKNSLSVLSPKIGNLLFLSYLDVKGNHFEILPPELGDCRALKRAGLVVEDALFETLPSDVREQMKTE
In words: affinity purification with mass spectrometry; pairs of endogenous LRRC8 subunits in the channels isolated on SBP-tagged Sb1 from HEK293T (WT) or LRRC8^B,D,E-/- cells; shotgun LC-MS/MS and absolute quantification with two isotope-labelled reference peptides per subunit. Particulars: partners not purified.

Series [5] concerns the molecule itself. In words: cryo-EM structure; homomeric LRRC8C at 5 mg/ml in digitonin, three data sets, two of them with Sb1 added at a 1:1.5 molar excess (per LRRC8C subunit) as negative control; C7 symmetry.

With “LRRC8A^SAM, construct for co-expression with LRRC8C (from UniProt Q80WG5 1-67; Q80WG5 93-810)”, the stoichiometry N in series [1] is 2 A:C.
With “murine LRRC8A (from UniProt Q80WG5 1-810) (natural protein)”, the stoichiometry N in series [2] was 2 A:C; in series [1], 2 A:C and 1.8 A:C.

B1: SBP-tagged sybody Sb1 (VHH)
VHH: QVQLVESGGGLVQAGGSLRLSCAASGFPVGRHFMYWYRQAPGKEREWVAAIYSYGEYTEYADSVKGRFTISRDNAKNTVYLQMNSLKPEDTAVYYCYVYVGNEYWGQGTQVTVSA
notes: as the chain of m3 (sybody Sb1), here with a C-terminal 3C site, myc tag and SBP tag (pcDXc3MS); they are in PDB 8B41 and PDB 7P5V; also called SBP-tagged Sb1; immobilized Sb1; not shown: myc, C-terminal, kept; SBP, C-terminal, kept
With B1, in series [3], the binding result is “binds”.

B2: endogenous LRRC8A of HEK293 cells (natural protein, human (endogenous in HEK293T), UniProt Q8IWT6 1-810, looked up)
chain: MIPVTELRYFADTQPAYRILKPWWDVFTDYISIVMLMIAVFGGTLQVTQDKMICLPCKWVTKDSCNDSFRGWAAPGPEPTYPNSTILPTPDTGPTGIKYDLDRHQYNYVDAVCYENRLHWFAKYFPYLVLLHTLIFLACSNFWFKFPRTSSKLEHFVSILLKCFDSPWTTRALSETVVEESDPKPAFSKMNGSMDKKSSTVSEDVEATVPMLQRTKSRIEQGIVDRSETGVLDKKEGEQAKALFEKVKKFRTHVEEGDIVYRLYMRQTIIKVIKFILIICYTVYYVHNIKFDVDCTVDIESLTGYRTYRCAHPLATLFKILASFYISLVIFYGLICMYTLWWMLRRSLKKYSFESIREESSYSDIPDVKNDFAFMLHLIDQYDPLYSKRFAVFLSEVSENKLRQLNLNNEWTLDKLRQRLTKNAQDKLELHLFMLSGIPDTVFDLVELEVLKLELIPDVTIPPSIAQLTGLKELWLYHTAAKIEAPALAFLRENLRALHIKFTDIKEIPLWIYSLKTLEELHLTGNLSAENNRYIVIDGLRELKRLKVLRLKSNLSKLPQVVTDVGVHLQKLSINNEGTKLIVLNSLKKMANLTELELIRCDLERIPHSIFSLHNLQEIDLKDNNLKTIEEIISFQHLHRLTCLKLWYNHIAYIPIQIGNLTNLERLYLNRNKIEKIPTQLFYCRKLRYLDLSHNNLTFLPADIGLLQNLQNLAITANRIETLPPELFQCRKLRALHLGNNVLQSLPSRVGELTNLTQIELRGNRLECLPVELGECPLLKRSGLVVEEDLFNTLPPEVKERLWRADKEQA
notes: LRRC8A, endogenous in HEK293 cells; also called A subunit; SWELL1; source: endogenous, HEK293T and HEK293 LRRC8^B,D,E-/- cells, lysate in 2% GDN; isolated on SBP-tagged Sb1
With B2, the “stoichiometry N” value in series [4] is 2.9 A:C and 1.8 A:C.

B3: murine LRRC8C, full length (natural protein, UniProt Q8R502 1-803, looked up)
chain: MIPVTEFRQFSEQQPAFRVLKPWWDVFTDYLSVAMLMIGVFGCTLQVMQDKIICLPKRVQPAQNHSSVPNVSQAVISTTPLPPPKPSPTNPATVEMKGLKTDLDLQQYSFINQMCYERALHWYAKYFPYLVLIHTLVFMLCSNFWFKFPGSSSKIEHFISILGKCFDSPWTTRALSEVSGEDSEEKDNRKNNMNRSGTIQSGPEGNLVRSQSLKSIPEKFVVDKSAAGALDKKEGEQAKALFEKVKKFRLHVEEGDILYAMYVRQTVLKVIKFLIIIAYNSALVSKVQFTVDCNVDIQDMTGYKNFSCNHTMAHLFSKLSFCYLCFVSIYGLTCLYTLYWLFYRSLREYSFEYVRQETGIDDIPDVKNDFAFMLHMIDQYDPLYSKRFAVFLSEVSENKLKQLNLNNEWTPDKLRQKLQTNAHNRLELPLIMLSGLPDTVFEITELQSLKLEIIKNVMIPATIAQLDNLQELCLHQCSVKIHSAALSFLKENLKVLSVKFDDMRELPPWMYGLRNLEELYLVGSLSHDISKNVTLESLRDLKSLKILSIKSNVSKIPQAVVDVSSHLQKMCVHNDGTKLVMLNNLKKMTNLTELELVHCDLERIPHAVFSLLSLQELDLKENNLKSIEEIVSFQHLRKLTVLKLWYNSIAYIPEHIKKLTSLERLFFSHNKVEVLPSHLFLCNKIRYLDLSYNDIRFIPPEIGVLQSLQYFSITCNKVESLPDELYFCKKLKTLKIGKNSLSVLSPKIGNLLFLSYLDIKGNHFEVLPPELGDCRALKRAGLVVEDALFETLPSDVREQMKAD
notes: LRRC8C, mouse; A remnant of the 3C site probably stays at the C-terminus; also called C subunit; C1; source: HEK293 LRRC8-/- cells (homomer; LRRC8A/C without Sb1; LRRC8A^SAM/C) or HEK293S GnTI- cells (LRRC8A/C/Sb1 samples), transfected, purified (Streptactin, SEC; tandem purification for heteromers) in digitonin; not shown: Venus, C-terminal, cleaved; myc, C-terminal, cleaved; SBP, C-terminal, …
Take B3: the “stoichiometry N” value in series [5] was 7.

The term stoichiometry N denotes the number of molecules, sites or subunits per partner or assembly.
